Target: T1, His-tagged KLHL2 protein (human, UniProt O95198 1-593)
T1 construct: Kelch Like Family Member 2 (KLHL2), human; source: recombinant
T1 sequence (looked up): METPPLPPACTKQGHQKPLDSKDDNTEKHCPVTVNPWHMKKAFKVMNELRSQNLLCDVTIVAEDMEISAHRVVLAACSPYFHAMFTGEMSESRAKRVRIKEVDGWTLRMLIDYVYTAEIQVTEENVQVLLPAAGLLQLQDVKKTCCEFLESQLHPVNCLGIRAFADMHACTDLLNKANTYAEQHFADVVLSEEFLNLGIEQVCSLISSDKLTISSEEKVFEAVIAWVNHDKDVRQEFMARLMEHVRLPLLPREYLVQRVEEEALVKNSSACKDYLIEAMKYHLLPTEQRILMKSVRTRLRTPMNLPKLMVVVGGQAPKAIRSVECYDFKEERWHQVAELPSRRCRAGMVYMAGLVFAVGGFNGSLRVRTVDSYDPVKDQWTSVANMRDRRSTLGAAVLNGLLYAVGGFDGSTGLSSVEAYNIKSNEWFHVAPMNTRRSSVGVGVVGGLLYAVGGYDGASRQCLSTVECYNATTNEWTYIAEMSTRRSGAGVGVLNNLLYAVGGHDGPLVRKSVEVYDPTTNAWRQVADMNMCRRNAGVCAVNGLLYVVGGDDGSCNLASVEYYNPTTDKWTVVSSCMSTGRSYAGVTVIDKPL
Assay: pull-down; recombinant GST-UCK1 protein incubated with His-tagged KLHL2 protein; GST pull-down
Conditions: both partners purified

B1: Recombinant GST-UCK1 protein (enzyme, human, UniProt Q9HA47 1-277, looked up)
chain: MASAGGEDCESPAPEADRPHQRPFLIGVSGGTASGKSTVCEKIMELLGQNEVEQRQRKVVILSQDRFYKVLTAEQKAKALKGQYNFDHPDAFDNDLMHRTLKNIVEGKTVEVPTYDFVTHSRLPETTVVYPADVVLFEGILVFYSQEIRDMFHLRLFVDTDSDVRLSRRVLRDVRRGRDLEQILTQYTTFVKPAFEEFCLPTKKYADVIIPRGVDNMVAINLIVQHIQDILNGDICKWHRGGSNGRSYKRTFSEPGDHPGMLTSGKRSHLESSSRPH
notes: uridine-cytidine kinase 1 (UCK1), human; source: recombinant
binding result: binds
